{
  "source": "patent US12037419B2",
  "about": "(The Feinstein Institutes for Medical Research, priority 2016, dated 2024)",
  "key": {"[1]": {"biological_target": "T1, RAGE (Homo sapiens, UniProt Q15109)", "T1 construct": "purchased R&D Systems", "T1 sequence (Q15109 23-342 limits assumed)": "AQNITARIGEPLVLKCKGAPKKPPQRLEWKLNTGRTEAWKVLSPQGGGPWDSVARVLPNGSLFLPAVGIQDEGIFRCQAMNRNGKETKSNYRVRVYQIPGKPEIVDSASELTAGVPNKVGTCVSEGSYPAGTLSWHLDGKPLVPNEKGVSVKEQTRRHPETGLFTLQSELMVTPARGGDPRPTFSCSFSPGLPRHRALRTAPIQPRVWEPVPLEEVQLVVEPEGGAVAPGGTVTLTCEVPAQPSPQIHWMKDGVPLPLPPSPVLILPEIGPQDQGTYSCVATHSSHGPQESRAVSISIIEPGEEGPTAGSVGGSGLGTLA", "assay": "SPR assay of C1q and RAGE binding", "details": "data not shown", "method": "Surface Plasmon Resonance analysis (SPR): For real-time binding interaction studies, a BIAcore T200 instrument (GE Healthcare) was used. […] A 1:1 mixture of N-hydroxysuccinimide and N-ethyl-N-(dimethyaminopropyl) carbodiimide was used to activate 2 flow-cells of the CMS chip. […] The analytes were diluted in 1×PBS+0.01% (vol/vol) tween-20 buffer. The analytes were sequentially injected at a flow rate of 30 μl/min for 60 s at 25° C. The KD was dertermined using the BIAcore evaluation software 2.0 (GE Healthcare) supposing a 1:1 binding ratio."}, "[2]": {"system": "human monocytes", "assay": "Induction of anti-inflammatory molecules / M2-like phenotype (Mer, PDL-1, IL-10, CD163) in monocytes", "assay_type": "cell-based", "details": "together with HMGB1 3 μg/ml, C1q 25 μg/ml or C1q tail 53 μg/ml, 24 h", "method": "(§1) Monocyte isolation and stimulation: Human PBMCs were obtained following institutional guidelines of the Feinstein Institute for Medical Research (Feinstein) and isolated from blood of healthy donors by density centrifugation (New York Blood Bank). Monocytes were negatively enriched using a human monocyte enrichment kit (Stem Cell Technology). Purity of monocytes (≥90% CD11b+CD14+LAIR-1+) was determined by flow cytometry. […] Splenic murine monocytes from wild type mice, RAGE deficient or LAIR-1 conditional knockout mice were isolated using EasySep mouse monocyte enrichment kit (Stem Cell Technology). C57BL/6 mice, Lysozyme2-Cre transgenic mice were purchased from Jackson Laboratory. Myeloid specific LAIR-1 conditional knockout mice (Lysozyme2-Cre×LAIR fl/fl) were bred and maintained in our facility (Feinstein) under specific pathogen-free conditions. RAGE deficient mice (Department of Medicine, Karolinska Institute Stockholm, Sweden) were maintained at Feinstein. Eight-to ten weeks old male mice were used for experiments. All animal procedures were approved by the Feinstein Institutional Animal Care and Use Committee.\nRT-PCR analysis and primers: Total RNA was extracted from cells (1-2×10^6 cells per sample) with an RNeasy kit (Qiagen, Venlo, Limburg, Netherlands) and cDNA was generated using an iScript cDNA synthesis kit (Bio-Rad laboratories). […] The relative induction was calculated by 2-ΔΔCt.\n(§2) Cytokine analysis: Cytokine levels were measured using a Human Proinflammatory 7-plex assay following the manufacturer's protocols (Meso Scale Discovery (MSD). MSD plates were analyzed on the MS2400 imager (MSD). All standards and samples were run in duplicates.\nFlow cytometry: Cells were suspended in staining buffer containing 2% BSA and incubated with Fc block (Miltenyi Biotec) for 15 min on ice. […] Events were acquired using either an LSRII or Fortessa cell analyzer (BD Biosciences), and data were analyzed using FlowJo (Tree star)."}, "[3]": {"system": "human monocytes", "assay": "SeaHorse cellular flux assay (OCR, ECAR)", "assay_type": "cell-based", "details": "HMGB1 3 μg/ml alone, 24 h", "method": "Cell metabolism analysis using SeaHorse Cellular Flux assay. […] One hour prior to measurement, culture medium was exchanged for assay medium (unbuffered DMEM (Sigma), supplemented with 10 mM Glucose, 1 mM Pyruvate and 2 mM Glutamine for mitochondrial assays, or with 2 mM Glutamine alone for glycolytic assays. Reagents were injected during the measurement to achieve final concentrations of oligomycin (1 μM), carbonyl cyanide p-(trifluoromethoxy) phenylhydrazone (FCCP) ([…]), Rotenone/antimycin A (0.5 μM). Glucose (10 mM), and 2-Deoxy-D glucose (50 mM). Oxygen consumption rate (OCR) and Extracellular acidification rate (ECAR) values were measured using a SeaHorse XfP instrument (SeaHorse bioscience). Measured values were normalized to the number of live cells present in each well as determined by a trypan blue staining by the end of each run. For OCR/ECAR ratio calculations, an average of the last two basal readings was used for both OCR and ECAR."}, "[4]": {"system": "human monocytes", "assay": "Monocyte to DC differentiation with GM-CSF and IL-4 (flow cytometry)", "assay_type": "cell-based", "details": "HMGB1 alone 24 h, then GM-CSF and IL-4"}, "[5]": {"system": "human monocytes", "assay": "HMGB1-induced monocyte activation (cytokine mRNA by q-PCR, protein by ELISA/MSD)", "assay_type": "cell-based", "details": "HMGB1 alone", "method": "as §1\nRT-PCR analysis and primers: Total RNA was extracted from cells (1-2×10^6 cells per sample) with an RNeasy kit (Qiagen, Venlo, Limburg, Netherlands) and cDNA was generated using an iScript cDNA synthesis kit (Bio-Rad laboratories). Real Time-PCR was performed on a Light Cycler 480 II (Roche) using Light Cycler 480 master mix with primers (Applied Biosystems) for IFNα1 (Hs00256882), IFNα7 (mm02525960), MX1 (Hs00182073, mm01217998), IL-6 (Hs00985639, mm99999064), TNFα (Hs00174128, mm00443258), IL-12a (Hs00168405), Mer (Hs01031973), PDL-1 (Hs01125301), IL-10 (Hs00961622), CD163 (Hs00174705), HPRT1 (Hs99999909, mm01545399) and Polr2a (Hs00172187). The genes of interest were normalized to the expression of house keeping genes and were compared to a control condition with no treatment. The relative induction was calculated by 2-ΔΔCt.\nTransfection: For RNA interference assays, human monocytes were transfected using an Amaxa Nucleofector kit (Lonza) with a greater than 40% transfection efficiency. siRNAs were obtained from Qiagen. The target sequence of human LAIR1-11 is […] (SEQ ID NO:9). The efficiency of knockdown was determined by flow cytometry and q-PCR.\nas §2"}, "[6]": {"system": "allogeneic primary human CD4 T cells", "assay": "Allogeneic mixed lymphocyte reaction", "assay_type": "cell-based", "details": "HMGB1 3 μg/ml alone", "method": "Allogeneic CD4 T lymphocytes were isolated from blood using the Naïve CD4+ T cell isolation kit II (Miltenyi Biotec.) following the manufacturer's protocol. Cells were analyzed by flow cytometry (>90%). T cells were labeled with 5 μM Cell Trace Violet cell proliferation kit (Thermo Fisher Scientific), added to mono/macrophages at a density of 2×10^5 cells/well (a 1:2 ratio) in the presence of 1 μg/ml anti-CD3 (OKT3, eBioscience). Control cultures contained medium only or T cells or mono/macrophages alone. After 4 days, cells were stained with FITC-anti-CD4, PerCPCy 5.5-CD14, PE-LAIR-1 and fixable viability dyes (FVD, eBioscience) for 20 min at room temperature and subsequently washed and fixed. Live cells (FVD-negative cells) were then gated on CD4-positive, and cell trace violet was assessed by flow cytometry on a BD LSR II (BD Biosciences). Cell proliferation was analyzed as described (51). The % divided cells was defined as the probability that a cell has divided at least once from the original population. The division index was defined as the average number of cell divisions that a cell in the original population has undergone."}, "[7]": {"system": "NZB/W mice", "assay": "NZB/W lupus mice in vivo (FIG. 23-25)", "set-up": "species or system mouse"}, "[8]": {"system": "murine macrophages", "assay": "RvD2 and LTB4 in murine macrophages after HMGB1 in vivo (FIG. 22)", "set-up": "species or system mouse"}},
  "data": [
    {"molecule": "C1q tail: C1q tail purified from whole C1q; collagen-like tail", "values": [
      {"measurement": "binding to RAGE", "setting": "[1]", "result": "No binding"},
      {"measurement": "transcription and protein expression of anti-inflammatory factors (Mer, PDL-1, IL-10, CD163)", "setting": "[2]", "result": "did not mediate similar effects"}
    ]},
    {"molecule": "HMGB1: Recombinant HMGB1 (Calmodulin Binding Protein Epitope, Cbp tagged) (protein, left off: small tags and cut ends) MGKGDPKKPRGKMSSYAFFVQTCREEHKKKHPDASVNFSEFSKKCSERWKTMSAKEKGKFEDMAKADKARYEREMKTYIPPKGETKKKFKDPNAPKRPPSAFFLFCSEYRPKIKGEHPGLSIGDVAKKLGEMWNNTAADDKQPYEKKAAKLKEKYEKDIAAYRAKGKPDAAKKGVVKAEKSKKKKEEEEDEEDEEDEEEEEDEEDEDEEEDDDDE", "values": [
      {"measurement": "OCR/ECAR ratio", "setting": "[3]", "result": "significantly decreased"},
      {"measurement": "baseline oxidative phosphorylation (OCR) and glycolytic metabolism (ECAR)", "setting": "[3]", "result": "enhanced"},
      {"measurement": "monocyte to DC differentiation after pre-treatment with HMGB1", "setting": "[4]", "result": "monocyte to DC differentiation occurred"},
      {"measurement": "transcription and secretion of type 1 IFN, IFN-inducible genes and proinflammatory cytokines", "setting": "[5]", "result": "dramatically increased"},
      {"measurement": "stimulation of T cells by monocytes exposed to HMGB1", "setting": "[6]", "result": "induced the strongest mixed lymphocyte reaction"}
    ]},
    {"molecule": "KLKEKYEKDIAAYRAKGKPDAAKKGVVKAEKSKKGGGGSGGGGSGGGGSKGEQ GEPGAPGI (Artificial based on human, HMGB1 B box-linker-C1q peptide) KLKEKYEKDIAAYRAKGKPDAAKKGVVKAEKSKKGGGGSGGGGSGGGGSKGEQGEPGAPGI", "values": [
      {"measurement": "anti-DNA IgM/IgG-producing splenocytes", "setting": "[7]; NZB/W mice in vivo", "result": "decreases anti-DNA IgM/IgG-producing splenocytes"},
      {"measurement": "inflammatory and anti-inflammatory markers in splenocytes", "setting": "[7]; NZB/W mice in vivo", "result": "decreases inflammatory and increases anti-inflammatory markers"},
      {"measurement": "progression of serum anti-dsDNA antibodies", "setting": "[7]; NZB/W mice in vivo", "result": "slows the progression"},
      {"measurement": "kidney IgG deposition", "setting": "[7]; NZB/W mice, staining data not shown", "result": "decreases kidney IgG deposition"},
      {"measurement": "LTB4 induction by HMGB1 in murine macrophages", "setting": "[8]", "result": "abolishes LTB4 induction"},
      {"measurement": "RvD2 in murine macrophages", "setting": "[8]; HMGB1 challenge", "result": "induces RvD2"}
    ]}
  ]
}
